According to the supplement of paper PMC9112550, “Optimization of the antimicrobial peptide Bac7 by deep mutational scanning” (BMC Biology, 2022):

Tested on: Escherichia coli TOP10
Test: shrunken log2 fold change of peptide-encoding DNA abundance (4.5 h post-induction vs induction); higher = less antimicrobial activity (less host growth inhibition)
Details: time post-induction: 4.5 h; library: site-saturation at positions 5, 18, 19, 20
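Also: peptides expressed intracellularly from a pBAD plasmid library in pooled LB shake-flask culture, induced with 0.3% L-arabinose, DNA abundance read by NGS, three biological replicates, DESeq2 with apeglm shrinkage.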

| Sequence | shrunken log2 fold change |
| --- | --- |
| RRIRPRPPRLPRPRPRPDEGPRP | -0.188 |
| RRIRHRPPRLPRPRPRPHMKPRP | 0.181 |
| RRIRKRPPRLPRPRPRPCSFPRP | -0.397 |
| RRIRMRPPRLPRPRPRPPNEPRP | 0.2 |
| RRIRHRPPRLPRPRPRPCYSPRP | -0.0983 |
| RRIRKRPPRLPRPRPRPCVLPRP | 0.0725 |
| RRIRLRPPRLPRPRPRPLSEPRP | 0.0386 |
| RRIRPRPPRLPRPRPRPGRTPRP | 0.153 |
| RRIRKRPPRLPRPRPRPTAEPRP | 0.079 |
| RRIRTRPPRLPRPRPRPQFKPRP | 2.23 |
| RRIRSRPPRLPRPRPRPVGMPRP | 0.12 |
| RRIRLRPPRLPRPRPRPRFWPRP | 0.486 |
| RRIRNRPPRLPRPRPRPNHSPRP | -0.525 |
| RRIRYRPPRLPRPRPRPPDIPRP | -0.157 |
| RRIRYRPPRLPRPRPRPFHIPRP | -0.24 |
| RRIRARPPRLPRPRPRPAHCPRP | 0.433 |
| RRIRSRPPRLPRPRPRPYNQPRP | -0.642 |
| RRIRVRPPRLPRPRPRPFQEPRP | 0.00442 |
| RRIRWRPPRLPRPRPRPKPNPRP | 0.367 |
| RRIRDRPPRLPRPRPRPEVKPRP | -0.0257 |
| RRIRERPPRLPRPRPRPGYYPRP | -0.0487 |
| RRIRLRPPRLPRPRPRPAGDPRP | 0.297 |
| RRIRARPPRLPRPRPRPGRGPRP | 0.486 |
| RRIRYRPPRLPRPRPRPDVQPRP | -0.0317 |
| RRIRDRPPRLPRPRPRPKQWPRP | 0.109 |

| Sequence | shrunken log2 fold change |
| --- | --- |
| RRIRGRPPRLPRPRPRPDWYPRP | 0.134 |
| RRIRLRPPRLPRPRPRPCEFPRP | -0.032 |
| RRIRGRPPRLPRPRPRPPKRPRP | 0.701 |
| RRIRLRPPRLPRPRPRPLLQPRP | 0.138 |
| RRIRSRPPRLPRPRPRPSGSPRP | -0.151 |
| RRIRPRPPRLPRPRPRPRANPRP | 0.286 |
| RRIRMRPPRLPRPRPRPPYLPRP | 0.204 |
| RRIRGRPPRLPRPRPRPKIKPRP | 0.564 |
| RRIRARPPRLPRPRPRPFIAPRP | 0.0626 |
| RRIRLRPPRLPRPRPRPDDKPRP | -0.525 |
| RRIRIRPPRLPRPRPRPKDCPRP | -0.0124 |
| RRIRLRPPRLPRPRPRPIFRPRP | 0.00696 |
| RRIRKRPPRLPRPRPRPLKAPRP | 0.0198 |
| RRIRHRPPRLPRPRPRPNDVPRP | -0.0131 |
| RRIRCRPPRLPRPRPRPRAAPRP | 0.779 |
| RRIRLRPPRLPRPRPRPLPCPRP | 0.142 |
| RRIRGRPPRLPRPRPRPEAKPRP | 1.76 |
| RRIRGRPPRLPRPRPRPYWVPRP | -0.178 |
| RRIRYRPPRLPRPRPRPVQKPRP | 0.0112 |
| RRIRKRPPRLPRPRPRPDDIPRP | 0.0454 |
| RRIRARPPRLPRPRPRPRNYPRP | 0.0668 |
| RRIRRRPPRLPRPRPRPYRGPRP | -0.191 |
| RRIRARPPRLPRPRPRPTIAPRP | 0.687 |
| RRIRCRPPRLPRPRPRPLHCPRP | -0.1 |
| RRIRYRPPRLPRPRPRPDKHPRP | -0.692 |

| Sequence | shrunken log2 fold change |
| --- | --- |
| RRIRRRPPRLPRPRPRPMMKPRP | 0.324 |
| RRIRLRPPRLPRPRPRPMNRPRP | -0.0112 |
| RRIRLRPPRLPRPRPRPWNKPRP | -0.436 |
| RRIRKRPPRLPRPRPRPIPRPRP | 1.3 |
| RRIRHRPPRLPRPRPRPKVTPRP | -0.62 |
| RRIRRRPPRLPRPRPRPATGPRP | 0.222 |
| RRIRIRPPRLPRPRPRPDMNPRP | -0.146 |
| RRIRWRPPRLPRPRPRPQWYPRP | -0.28 |
| RRIRHRPPRLPRPRPRPINDPRP | -0.887 |
| RRIRNRPPRLPRPRPRPKLFPRP | 0.371 |
| RRIRFRPPRLPRPRPRPRVKPRP | -0.154 |
| RRIRTRPPRLPRPRPRPSPQPRP | -0.133 |
| RRIRQRPPRLPRPRPRPGGDPRP | 0.0869 |
| RRIRSRPPRLPRPRPRPMKVPRP | -0.0404 |
| RRIRNRPPRLPRPRPRPHKFPRP | -0.231 |
| RRIRGRPPRLPRPRPRPSFKPRP | -0.0759 |
| RRIRIRPPRLPRPRPRPAVHPRP | -0.145 |
| RRIRHRPPRLPRPRPRPKVCPRP | -0.19 |
| RRIRWRPPRLPRPRPRPDLYPRP | 0.0586 |
| RRIRKRPPRLPRPRPRPYMDPRP | -0.763 |
| RRIRVRPPRLPRPRPRPLFHPRP | -0.311 |
| RRIRTRPPRLPRPRPRPLVMPRP | -0.0423 |
| RRIRRRPPRLPRPRPRPIPMPRP | 0.287 |
| RRIRHRPPRLPRPRPRPTNHPRP | -0.457 |
| RRIRFRPPRLPRPRPRPQAVPRP | 0.0175 |

| Sequence | shrunken log2 fold change |
| --- | --- |
| RRIRTRPPRLPRPRPRPAFRPRP | -0.125 |
| RRIRTRPPRLPRPRPRPIGYPRP | -0.0183 |
| RRIRTRPPRLPRPRPRPVTRPRP | 0.229 |
| RRIRRRPPRLPRPRPRPTVTPRP | 0.144 |
| RRIRMRPPRLPRPRPRPELDPRP | 2.77 |
| RRIRCRPPRLPRPRPRPGEDPRP | -0.0369 |
| RRIRARPPRLPRPRPRPRGYPRP | 0.166 |
| RRIRLRPPRLPRPRPRPRCKPRP | 0.0707 |
| RRIRFRPPRLPRPRPRPIHDPRP | -0.211 |
| RRIRHRPPRLPRPRPRPCLPPRP | -0.041 |
| RRIRRRPPRLPRPRPRPPEYPRP | 0.0513 |
| RRIRFRPPRLPRPRPRPWGGPRP | 0.162 |
| RRIRWRPPRLPRPRPRPTAKPRP | 0.0717 |
| RRIRYRPPRLPRPRPRPRFRPRP | -0.213 |
| RRIRYRPPRLPRPRPRPDINPRP | -0.162 |
| RRIRQRPPRLPRPRPRPWRPPRP | 0.143 |
| RRIRRRPPRLPRPRPRPSSIPRP | -0.485 |
| RRIRFRPPRLPRPRPRPCEYPRP | -0.000476 |
| RRIRTRPPRLPRPRPRPFTHPRP | -0.174 |
| RRIRDRPPRLPRPRPRPFQAPRP | 0.0185 |
| RRIRYRPPRLPRPRPRPGPAPRP | 0.0198 |
| RRIRCRPPRLPRPRPRPFNIPRP | -0.436 |
| RRIRARPPRLPRPRPRPAMNPRP | 0.121 |
| RRIRKRPPRLPRPRPRPEWYPRP | -0.204 |
| RRIRIRPPRLPRPRPRPQDTPRP | -0.048 |

| Sequence | shrunken log2 fold change |
| --- | --- |
| RRIRTRPPRLPRPRPRPVREPRP | 0.139 |
| RRIRNRPPRLPRPRPRPPHFPRP | 0.0188 |
| RRIRNRPPRLPRPRPRPMCWPRP | 0.327 |
| RRIRGRPPRLPRPRPRPGLKPRP | 0.725 |
| RRIRERPPRLPRPRPRPKNDPRP | -0.467 |
| RRIRWRPPRLPRPRPRPMCLPRP | -0.0933 |
| RRIRWRPPRLPRPRPRPIEHPRP | -0.133 |
| RRIRPRPPRLPRPRPRPELIPRP | 0.0313 |
| RRIRFRPPRLPRPRPRPVAQPRP | 0.0899 |
| RRIRYRPPRLPRPRPRPHPNPRP | -0.758 |
| RRIRGRPPRLPRPRPRPFWLPRP | 0.299 |
| RRIRGRPPRLPRPRPRPEHLPRP | 0.494 |
| RRIRKRPPRLPRPRPRPNYQPRP | -0.0219 |
| RRIRERPPRLPRPRPRPQCSPRP | -0.442 |
| RRIRKRPPRLPRPRPRPVAKPRP | 3.34 |
| RRIRDRPPRLPRPRPRPPMVPRP | 0.207 |
| RRIRARPPRLPRPRPRPGHCPRP | 0.0986 |
| RRIRGRPPRLPRPRPRPWDRPRP | -0.141 |
| RRIRVRPPRLPRPRPRPHQHPRP | -0.189 |
| RRIRQRPPRLPRPRPRPMFPPRP | -0.181 |
| RRIRFRPPRLPRPRPRPEEWPRP | -0.0208 |
| RRIRMRPPRLPRPRPRPLPMPRP | 0.429 |
| RRIRCRPPRLPRPRPRPHEIPRP | 0.322 |
| RRIRNRPPRLPRPRPRPAPGPRP | 0.164 |
| RRIRNRPPRLPRPRPRPIKCPRP | -0.0141 |

| Sequence | shrunken log2 fold change |
| --- | --- |
| RRIRQRPPRLPRPRPRPCRKPRP | 0.0642 |
| RRIRWRPPRLPRPRPRPGSSPRP | -0.0655 |
| RRIRMRPPRLPRPRPRPHLMPRP | 0.151 |
| RRIRARPPRLPRPRPRPVLSPRP | 0.26 |
| RRIRHRPPRLPRPRPRPFDKPRP | -0.118 |
| RRIRIRPPRLPRPRPRPCPRPRP | -0.185 |
| RRIRGRPPRLPRPRPRPMQGPRP | 0.0711 |
| RRIRGRPPRLPRPRPRPMDVPRP | 0.265 |
| RRIRYRPPRLPRPRPRPRPVPRP | 0.0983 |
| RRIRTRPPRLPRPRPRPISNPRP | -0.576 |
| RRIRRRPPRLPRPRPRPFDAPRP | 0.44 |
| RRIRERPPRLPRPRPRPSPAPRP | -0.0943 |
| RRIRLRPPRLPRPRPRPVDWPRP | 0.252 |
| RRIRSRPPRLPRPRPRPVRKPRP | 0.324 |
| RRIRKRPPRLPRPRPRPWAEPRP | 0.0785 |
| RRIRKRPPRLPRPRPRPEPCPRP | 0.0397 |
| RRIRVRPPRLPRPRPRPGTFPRP | -0.867 |
| RRIRIRPPRLPRPRPRPERMPRP | -0.0641 |
| RRIRDRPPRLPRPRPRPSRAPRP | 0.156 |
| RRIRWRPPRLPRPRPRPLNTPRP | 0.0456 |
| RRIRMRPPRLPRPRPRPMWGPRP | 0.285 |
| RRIRGRPPRLPRPRPRPKHFPRP | -0.121 |
| RRIRMRPPRLPRPRPRPSILPRP | 0.0568 |
| RRIRKRPPRLPRPRPRPDCLPRP | -0.116 |
| RRIRCRPPRLPRPRPRPHWFPRP | -0.0681 |
